Assay results published in paper PMC10275869.

How the values were obtained:
Assay in all cases: SEC; 100-200 μg of protein on a Superose 6 Increase 10/300GL column
[1] = molecular target: LayV F clamp2 (prefusion Langya virus fusion glycoprotein ectodomain stabilised with the clamp2 molecular clamp) (Langya virus)
[2] = molecular target: unstabilised LayV F (ectodomain with C-Tag, without clamp2) (Langya virus)
[3] = molecular target: unstabilised MojV F (ectodomain with C-Tag, without clamp2) (Mòjiāng virus)

LayV F clamp2 (prefusion Langya virus fusion glycoprotein ectodomain stabilised with the clamp2 molecular clamp) (domain or fragment)
stoichiometry N [1]: 3

unstabilised LayV F (ectodomain with C-Tag, without clamp2) (domain or fragment)
stoichiometry N [2]: 3

unstabilised MojV F (ectodomain with C-Tag, without clamp2) (domain or fragment)
stoichiometry N [3]: 3
